The source of these data is the supplement of paper PMC9170038.

For the series, the system named is MS2 coat protein. The series can be described thus: apparent KD of MS2 coat protein; designed switch direction (-1 OFF switch, 1 ON switch): -1; higher = weaker reporter binding. The essentials: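 Apparent KD, taken as the median over clusters for each design, was obtained by curve-fitting normalised cluster fluorescence. Designed RNA switches had been transcribed on Illumina chips by stalled E. coli RNA polymerase and titrated with SNAP-549-labelled MS2 coat protein, doubling from 0.7 or 1.5 nM to 3 µM.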

Setting [1] is: Eterna round: R95, input ligand: FMN 200 uM.
[2] abbreviates: Eterna round: R95, input ligand: microRNA oligo, concentration not stated.
[3] abbreviates: Eterna round: R95, input ligand: none.
The mark [4] stands for this setting: input ligand: microRNA oligo, concentration not stated.

As to “CUGGAGUCAGGAUAUAGGGCGGCUAUAACGCUCGCGCCGACCUAGAAGGGACUUGAGGAUCACCCAAGUAAAAU [Teerlaxe] (Eterna round: R97, puzzle: Exclusion 4)”, the “apparent KD of MS2 coat protein” value was determined as 0.167 µM (input ligand: FMN 200 uM) and 0.0551 µM (input ligand: none).

“CUGGUCCGAGGAUAUAUUAAGUGAAACAUGAGGAUCACCCAUGUUAUUUAAUGGAAAUAAAUAGAAGGCGGACUAG [Mat - Exclusion 5 - JL mod - D55] (puzzle: Exclusion 5)”: the “apparent KD of MS2 coat protein” value under setting [1] worked out at 0.0344 µM, the “apparent KD of MS2 coat protein” value under setting [2] worked out at 0.0337 µM and the “apparent KD of MS2 coat protein” value under setting [3] came to 0.0599 µM.

As to “CUGGUCCGAGGAUAUAUUAAGUGAUACAUGAGGAUCACCCAUGUAAUUUAAUGGAUAUAAAUAGAAGGCGGACUAG [Mat - Exclusion 5 - JL mod - D48] (puzzle: Exclusion 5)”, the “apparent KD of MS2 coat protein” value is 0.0429 µM under setting [1], 0.0264 µM under setting [2] and 0.0328 µM under setting [3].

“CUGGUCCGAGGAUAUAUUAAGUGAUACAUGAGGAUCACCCAUGUAAUUUGAUGGAAGUAAAUAGAAGGCGGACUAG [Mat - Exclusion 5 - JL mod - D45] (puzzle: Exclusion 5)”: the “apparent KD of MS2 coat protein” value under setting [1] was 0.0342 µM, the “apparent KD of MS2 coat protein” value under setting [2] worked out at 0.043 µM and the “apparent KD of MS2 coat protein” value under setting [3] amounted to 0.074 µM.

Take “CUGGUCCGAGGAUAUAUUAAGUGAUACAUGAGGAUCACCCAUGUUAUUUGAUGGAUAUUAAUAGAAGGCGGACUAG [Mat - Exclusion 5 - JL mod - D75] (puzzle: Exclusion 5)”: the “apparent KD of MS2 coat protein” value amounted to 0.0319 µM under setting [1], 0.0188 µM under setting [2] and 0.0287 µM under setting [3].

“CUGGUCCGAGGAUAUAUUUAGUGAAACAUGAGGAUCACCCAUGUUAUUAGAUGGAUGUAAAUAGAAGGCGGACUAG [Mat - Exclusion 5 - JL mod - D63] (puzzle: Exclusion 5)”: the “apparent KD of MS2 coat protein” value under setting [1] came to 0.0185 µM, the “apparent KD of MS2 coat protein” value under setting [2] was determined as 0.0204 µM and the “apparent KD of MS2 coat protein” value under setting [3] is 0.0238 µM.

With “CUGGUGUGAGGAUAUCAAAGACCUCGGGAAAGAACCGAGAAUGAGAAGGCACAUGAGGAUCACCCAUGUAACAA [Enerteon] (puzzle: Exclusion 4)”, the “apparent KD of MS2 coat protein” value under setting [2] stood at 0.0179 µM.

As for “CUGGUGUGAGGAUAUCAAAGACCUCGGGAUAGUACCGAGGAUGAGAAGGCACAUGAGGAUCACCCAUGUAACAA [Armaleti] (puzzle: Exclusion 4)”, the “apparent KD of MS2 coat protein” value under setting [2] is 0.0221 µM.

On to “CUGGUGUGAGGAUAUCAGGACACGCCCGCGGACGUGUCAAAUGAGAAGGCACAUGAGGAUCACCCAUGUGGGAC [Onzausin] (puzzle: Exclusion 4)”, for which the “apparent KD of MS2 coat protein” value under setting [2] is 0.0317 µM.

For the sequence “CUGUGCUGACGGAGAUCCAACAUGAGGAUCACCCAUGUCUCAAAAGCUUUUUGCUCGUCUUAUCCUCCUCAGUACAC [Mat - Sensor, turn-off var - Eli Mod - D56] (Eterna round: R97, puzzle: Sensor, turn-off variant 1)”, the “apparent KD of MS2 coat protein” value was determined as 0.0177 µM (input ligand: FMN 200 uM) and 0.0172 µM (input ligand: none).

With “CUGUUUUUCGCAGGAUAUGCUCCUCCUUUAUUUGCAGAAGGGCGUUAAACAUGAGGAUCACCCAUGUAUGGUAAUGACAUUUUC [JR_ExcNG1_Sub063] (Eterna round: R96, puzzle: Exclusion NG 1)”, the “apparent KD of MS2 coat protein” value is, setting by setting: (input ligand: FMN 200 uM) 0.135 µM; under setting [4], 0.0208 µM; (input ligand: none) 0.0296 µM.

Take “CUUAAACAUGAGGAUCACCCAUGUCAGGAUAUGAUACUAUGUACUUCGGUACAUAGUAUCAGAAGGGAUAUAAA [Ex1-3: 65] (puzzle: Exclusion 1)”: the “apparent KD of MS2 coat protein” value under setting [2] is 0.0393 µM.

For the sequence “CUUAGACAUGAGGAUCACCCAUGUGAGGAUAUGAUGCGAUCGUGCUGACAUGAUCGCAUCAGAAGGCACAUAUG [JL-ex1-01 Hyphema Mod2] (Eterna round: R96, puzzle: Exclusion 1)”, the “apparent KD of MS2 coat protein” value reads like this: (input ligand: FMN 200 uM) 0.242 µM; under setting [4], 0.101 µM; (input ligand: none) 0.115 µM.

With “CUUAGACAUGAGGAUCACCCAUGUGAGGAUAUGAUGCGAUCGUGCUGACAUGAUCGCAUCAGAAGGCACAUAUG [JL-ex1-01 Hyphema Mod2] (puzzle: Exclusion 1)”, the “apparent KD of MS2 coat protein” value under setting [2] was 0.12 µM.

Turning to “CUUAUGGUCCAUACCUAGAACAUGAGGAUCACCCAUGUAAUACAUGACACCUACCUUAAGCACAGCUCGUCUUGUAG [Eternabot (Original) Solution 30] (Eterna round: R97, puzzle: Sensor, turn-off variant 1)”, the “apparent KD of MS2 coat protein” value was 0.0489 µM (input ligand: FMN 200 uM) and 0.057 µM (input ligand: none).

Turning to “CUUCCCAAAGGAUAUCACGGUAAUAACAUGAGGAUCACCCAUGUGCAAUUCGUGUCCCUGUGAGAAGGUUGAGAAG [Anlabe] (puzzle: Exclusion 5)”, the “apparent KD of MS2 coat protein” value stood at 0.0179 µM under setting [1], 0.0111 µM under setting [2] and 0.012 µM under setting [3].

For the sequence “CUUCUCAAAGGAUAUCACGGUAAUAACAUGAGGAUCACCCAUGUGCAAUUCGUGUCCCUGUGAGAAGGUUGAGAAG [Remaor] (Eterna round: R96, puzzle: Exclusion 5)”, the “apparent KD of MS2 coat protein” value (input ligand: FMN 200 uM) came out at 0.0195 µM, the “apparent KD of MS2 coat protein” value under setting [4] was determined as 0.0111 µM and the “apparent KD of MS2 coat protein” value (input ligand: none) is 0.0132 µM.

As for “CUUCUCAAAGGAUAUCACGGUAAUAACAUGAGGAUCACCCAUGUGCAAUUCGUGUCCCUGUGAGAAGGUUGAGAAG [Remaor] (puzzle: Exclusion 5)”, the “apparent KD of MS2 coat protein” value under setting [2] was 0.0105 µM.

As for “CUUGUGCAACAGGAUAUGUGCACGGCAGUAGCAACAGAAGGGUUGACAUGAGGAUCACCCAUGUUUACAAAGCG [Eternabot (Original) Solution 35] (Eterna round: R97, puzzle: Exclusion 6)”, the “apparent KD of MS2 coat protein” value reads like this: (input ligand: FMN 200 uM) 0.132 µM; (input ligand: none) 0.137 µM.

On to “CUUGUGUGAGGAUAUGACAAUGGUAUCUUCGGAUACCAUUGUCAGAAGGUACAUGAGGAUCACCCAUGUAGAUC [Exclusion 4 - Mod Brourd Ex 4-3: 20] (puzzle: Exclusion 4)”, for which the “apparent KD of MS2 coat protein” value under setting [2] is 0.072 µM.

For “CUUUCGUCUGUGGGUGGUGACAUGAGGAUCACCCAUGUUUUGCUCGUCUUGUGCCGGGCCCGGCGCCCGGGCCCGGC [-38.7, -62.6, A 8%] (Eterna round: R97, puzzle: Sensor, turn-off variant 1)”, the “apparent KD of MS2 coat protein” value (input ligand: FMN 200 uM) amounted to 0.861 µM and the “apparent KD of MS2 coat protein” value (input ligand: none) was found to be 0.992 µM.

In the case of “CUUUCGUGAGGAUAUCAGUAGUAAAAAUAUAAAAUUACUACUGAGAAGGCACAUGAGGAUCACCCAUGUUCCUC [salish99_ex3_r3_100] (puzzle: Exclusion 4)”, the “apparent KD of MS2 coat protein” value under setting [2] was 0.0241 µM.

As to “CUUUCGUGAGGAUAUCAGUAGUAAAUAAAUAAAAUUACUACUGAGAAGGCACAUGAGGAUCACCCAUGUUCCUC [salish99_ex3_r3_096] (puzzle: Exclusion 4)”, the “apparent KD of MS2 coat protein” value under setting [2] worked out at 0.0235 µM.

With “CUUUCGUGAGGAUAUGUGGCUUCGAAAGUGAGAUCGAGGCUACAGAAGGCACAUGAGGAUCACCCAUGUUCCUC [salish99_ex4_r4_214] (Eterna round: R97, puzzle: Exclusion 4)”, the “apparent KD of MS2 coat protein” value worked out at 0.371 µM (input ligand: FMN 200 uM) and 0.0282 µM (input ligand: none).

“CUUUCUUGCAAGGAUAUGCAAUUUAUUAUUUAUGCAGAAGGUGCUACAUGAGGAUCACCCAUGUUUCUGGGUUU [JR_E6_Sub045] (puzzle: Exclusion 6)”: under setting [2], the “apparent KD of MS2 coat protein” value worked out at 0.124 µM.
